The values below come from US8563700B2, “Synergistic effects” (ImmunoGen, Inc., priority 2008, dated 2013).

What all share (type): in vivo
Assay [1] has as its system OPM2 human multiple myeloma cells. The experiment in a line: huN901-DM1 and bortezomib in established subcutaneous OPM2 multiple myeloma xenografts. The settings on record: SCID mice. From the text:
(§1) Mice were inoculated with human multiple myeloma tumor cell lines and allowed to become established (average tumor size of about 100 mm^3) prior to treatment. Conjugate dosing is described based on DM1 concentration. Efficacy is reported as both the % of tumor growth for treated vs. control (% T/C) and log cell kill (LCK) determined from the tumor doubling time and the tumor growth delay due to the treatment.
The anti-tumor effect of a combination of huN901-DM1 and bortezomib (Velcade, Millennium Pharmaceuticals) was evaluated in an established subcutaneous xenograft model of multiple myeloma. SCID mice (36 animals) were inoculated with OPM2 human multiple myeloma cells (1×10^7 cells/animal) injected subcutaneously into the right shoulder of the mice. […] Two groups of mice were treated with the single agent huN901-DM1 at DM1 doses of 100 μg/kg and 200 μg/kg, respectively (day 12 post tumor cell inoculation) administered intravenously. A third group of mice was treated with the single agent bortezomib at a dose of 1 mg/kg (days 13 and 16 post tumor cell inoculation), administered intravenously. Two groups were treated with combinations of huN901-DM1 (100 μg/kg or 200 μg/kg) plus bortezomib using the same doses, schedules and administration routes used for single agent treated groups. A control group of animals received PBS administered intravenously (day 12 post tumor cell inoculation). Tumor growth was monitored by measuring tumor size twice per week. Tumor size was calculated with the formula: length×width×height×½.

Assay [2] has as its system H929 human multiple myeloma cells. In words: huN901-DM1 and bortezomib in H929 multiple myeloma large tumor xenografts. To be noted: for activity according to NCI standards: huN901-DM1 50 μg/kg, bortezomib 0.5 mg/kg, as single agents or combined. The method, then:
as §1
The anti-tumor effect of a combination of huN901-DM1 and bortezomib was evaluated in an established subcutaneous xenograft model of multiple myeloma. SCID mice (54 animals) were inoculated with H929 human multiple myeloma cells (1×10^7 cells/animal) injected subcutaneously into the right shoulder of the mice. […] Two groups of mice were treated with the single agent huN901-DM1 at DM1 doses of 50 μg/kg and 100 μg/kg, respectively (day 34 post tumor cell inoculation) administered intravenously. Two groups of mice were treated with the single agent bortezomib at a 0.5 mg/kg low dose and 1 mg/kg high dose (days 35 and 38 post tumor cell inoculation) administered intravenously. Four combination groups were evaluated, with combinations of each dose of huN901-DM1 plus low- or high-dose bortezomib using the same schedules used for single agent treated groups. A control group of animals received PBS administered intravenously (day 34 post tumor cell inoculation). Tumor growth was monitored by measuring tumor size twice per week. Tumor size was calculated with the formula: length×width×height×½.

Assay [3] concerns OPM2 human multiple myeloma cells. In words: huN901-DM1 and lenalidomide in established subcutaneous OPM2 multiple myeloma xenografts. The settings on record: combination same doses; for LCK / T/C: SCID mice, lenalidomide 100 mg/kg i.p. days 16-20, 23-27; for LCK: huN901-DM1 200 μg/kg i.v. day 16; for T/C: huN901-DM1 200 μg/kg i.v. single injection day 16. The method, then: as §1
The anti-tumor effect of a combination of huN901-DM1 and lenalidomide was evaluated in an established subcutaneous xenograft model of multiple myeloma. SCID mice (20 animals) were inoculated with OPM2 human multiple myeloma cells (1×10^7 cells/animal) injected subcutaneously into the right shoulder of the mice. When the tumors reached about 130 mm^3 in size (16 days after tumor cell inoculation), the mice were randomly divided into four groups (5 animals per group). One group of mice was treated with the single agent huN901-DM1 (200 μg/kg, day 16 post tumor cell inoculation) administered intravenously. […] A third group was treated with a combination of huN901-DM1 plus lenalidomide using the same doses, schedules and administration routes used for single agent treated groups. A control group of animals received PBS administered intravenously (day 16 post tumor cell inoculation). Tumor growth was monitored by measuring tumor size twice per week. Tumor size was calculated with the formula: length×width×height×½.

The test system of assay [4] is MOLP-8 human multiple myeloma cells. The settings on record: Balb/c nude mice; huN901-DM1 200 μg/kg DM1 i.v. single injection day 22; melphalan 12 mg/kg i.p. single injection day 23; combination same doses.
Text: as §1
(§2) Tumor growth was monitored by measuring tumor size twice per week. Tumor size was calculated with the formula: length×width×height×½.

For assay [5] the test system is unchanged. The experiment in a line: huN901-DM1 and thalidomide in established subcutaneous MOLP-8 multiple myeloma xenografts. The settings on record: SCID mice; huN901-DM1 100 μg/kg, thalidomide 200 mg/kg, as single agents or combined.
Text: as §1, §2

The test system is the same in assay [6]. The experiment in a line: Triple combination huN901-DM1, lenalidomide plus low-dose dexamethasone in MOLP-8 xenografts. The method, then: Lenalidomide (100 mg/kg, qd×5×2) was administered at days 1-5 and 8-12. […]
as §1
The anti-tumor effect of a triple-combination of huN901-DM1 and lenalidomide plus low-dose dexamethasone was evaluated in an established subcutaneous xenograft model of multiple myeloma. SCID mice were inoculated with MOLP-8 human multiple myeloma cells (1.5×10^7 cells/animal) injected subcutaneously into the right shoulder of the mice. […] Treatments were initiated on day 13 post inoculation, indicated as day 1 of treatment. […] A second group of mice was treated with the combination of lenalidomide/low-dose dexamethasone (lenalidomide at 100 mg/kg, administered as a suspension in 1% carboxymethylcellulose/PBS by intraperitoneal injection on days 1-5, 8-12; dexamethasone at 1.5 mg/kg, administered by subcutaneous injection on days 1 and 8). A third group was treated with the triple-combination of huN901-DM1 plus lenalidomide/dexamethasone using the same doses, schedules and administration routes used for individual treatment groups. A control group of animals received PBS administered intravenously (days 1 and 8). Tumor growth was monitored by measuring tumor size twice per week. Tumor size was calculated with the formula: length×width×height×½.

[7] abbreviates: bortezomib single agent, high dose 1.0 mg/kg.
The mark [8] stands for this setting: huN901-DM1 200 μg/kg, lenalidomide 100 mg/kg.

Usually T/C stands for the result in the treated group divided by that in the control group, in per cent. On to `CC(C)C[C@H](NC(=O)[C@H](Cc1ccccc1)NC(=O)c1cnccn1)B(O)O` [bortezomib], for which, in assay [1] (bortezomib single agent 1 mg/kg i.v. days 13 and 16), the “tumor-free mice at day 91” value was “no tumor-free mice”. Further, in assay [2] (setting [7]), the T/C is 11%, the outcome was active and the “tumor-free mice at day 119” value is on record as 1 of 6. The “activity according to NCI standards” value in assay [2] was “inactive”.
Turning to `Nc1cccc2c1CN(C1CCC(=O)NC1=O)C2=O` (stereo not shown) [lenalidomide, reference compound], in assay [3], the LCK turned out to be 0.9 and the T/C is reported as 28%.
`N[C@@H](Cc1ccc(N(CCCl)CCCl)cc1)C(=O)O` [melphalan, reference compound]: the tumor growth delay in assay [4] is 14 days.
For the molecule `O=C1CCC(N2C(=O)c3ccccc3C2=O)C(=O)N1` (stereo not shown) [thalidomide, reference compound], the “activity according to NCI standards” value in assay [5] was “inactive”.

B1: huN901-DM1: humanized antibody N901-maytansinoid conjugate (huN901-DM1); N901 binds to CD56 (conjugate, chains of the INN, looked up)
VH: QVQLVESGGGVVQPGRSLRLSCAASGFTFSSFGMHWVRQAPGKGLEWVAYISSGSFTIYYADSVKGRFTISRDNSKNTLYLQMNSLRAEDTAVYYCARMRKGYAMDYWGQGTLVTVSS
VL: DVVMTQSPLSLPVTLGQPASISCRSSQIIIHSDGNTYLEWFQQRPGQSPRRLIYKVSNRFSGVPDRFSGSGSGTDFTLKISRVEAEDVGVYYCFQGSHVPHTFGQGTKVEIK
modifications: DM1 maytansinoid conjugate
For the molecule B1, the LCK in assay [3] is given as 0.9; in assay [6] (SCID mice, huN901-DM1 150 μg/kg, qw×2 i.v., lenalidomide 100 mg/kg i.p. days 1-5, 8-12, dexamethasone 1.5 mg/kg s.c. days 1 and 8), 0.5. For the same molecule, the T/C amounted to 26% in assay [3]; 33% in assay [6] (SCID mice, huN901-DM1 150 ng/kg, qw×2 i.v., lenalidomide 100 mg/kg i.p. days 1-5, 8-12, dexamethasone 1.5 mg/kg s.c. days 1 and 8). Also, the activity entry is recorded as “active” in assay [3] (setting [8]) and “active” in assay [6] (MOLP-8 tumors, doses as in Example 7). Moreover, the “tumor-free mice at the end of the study” value in assay [3] (setting [8]) is “no tumor-free survivors”. Further, in assay [6] (huN901-DM1 alone or lenalidomide/dexamethasone groups), the regressions result is on record as “no regressions”. The “activity according to NCI standards” value in assay [5] and in assay [2] was “inactive” in each case. Also, the “tumor-free mice at day 91” value in assay [1] (huN901-DM1 100 μg/kg i.v. day 12, alone or plus bortezomib 1 mg/kg i.v. days 13 and 16) was 1 of 6; in assay [1] (huN901-DM1 200 μg/kg i.v. day 12, alone or plus bortezomib 1 mg/kg i.v. days 13 and 16) it was 3 of 6. For the same molecule, the tumor growth delay in assay [4] stood at 11 days.
